Data as given in patent US20240368286A1 (SHANGHAI JMT BIO TECHNOLOGY, published 2024).
Read-outs that look alike come from different tables or passages of the source. Values belong to the binder of their own block, whether it stands above or below them.

How the values were obtained:
[1] = target: T1, Mouse GFRAL (mGFRAL) on HEK293 reporter cells with mouse RET (mouse, UniProt Q6SJE0 20-393); assay: cell-based or functional assay
T1 sequence (looked up): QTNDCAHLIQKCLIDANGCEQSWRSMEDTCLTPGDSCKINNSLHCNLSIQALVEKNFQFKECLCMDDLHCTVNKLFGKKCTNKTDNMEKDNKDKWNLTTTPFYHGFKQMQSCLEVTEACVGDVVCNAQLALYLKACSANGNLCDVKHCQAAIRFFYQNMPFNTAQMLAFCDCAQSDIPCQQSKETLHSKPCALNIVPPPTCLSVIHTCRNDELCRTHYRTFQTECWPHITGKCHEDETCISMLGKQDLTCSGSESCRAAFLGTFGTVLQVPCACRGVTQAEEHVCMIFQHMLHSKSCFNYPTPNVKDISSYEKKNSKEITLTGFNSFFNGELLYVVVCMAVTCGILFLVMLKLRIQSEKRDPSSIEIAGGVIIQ

[2] = target: T2, Human GFRAL (hGFRAL) on HEK293 reporter cells with human RET (human, UniProt Q6UXV0 19-394); assay: cell-based or functional assay
T2 sequence (looked up): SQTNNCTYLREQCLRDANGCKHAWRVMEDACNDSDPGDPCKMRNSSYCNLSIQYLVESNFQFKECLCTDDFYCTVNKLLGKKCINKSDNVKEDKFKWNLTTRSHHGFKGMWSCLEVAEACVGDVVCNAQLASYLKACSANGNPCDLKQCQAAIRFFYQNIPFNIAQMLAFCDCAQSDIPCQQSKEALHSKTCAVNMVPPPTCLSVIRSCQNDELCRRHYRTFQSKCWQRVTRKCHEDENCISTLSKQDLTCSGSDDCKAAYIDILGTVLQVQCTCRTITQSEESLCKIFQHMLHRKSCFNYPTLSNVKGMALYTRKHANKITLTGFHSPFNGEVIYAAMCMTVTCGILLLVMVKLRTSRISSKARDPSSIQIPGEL

Mouse GFRAL-Fc protein = target: T3, Mouse GFRAL-Fc protein (mouse, UniProt Q6SJE0 20-349, limits assumed); assay: ELISA, antigen coated on plate, purified antibody titrated, HRP anti-mouse IgG detection
T3 construct: not shown: Fc
T3 sequence (looked up): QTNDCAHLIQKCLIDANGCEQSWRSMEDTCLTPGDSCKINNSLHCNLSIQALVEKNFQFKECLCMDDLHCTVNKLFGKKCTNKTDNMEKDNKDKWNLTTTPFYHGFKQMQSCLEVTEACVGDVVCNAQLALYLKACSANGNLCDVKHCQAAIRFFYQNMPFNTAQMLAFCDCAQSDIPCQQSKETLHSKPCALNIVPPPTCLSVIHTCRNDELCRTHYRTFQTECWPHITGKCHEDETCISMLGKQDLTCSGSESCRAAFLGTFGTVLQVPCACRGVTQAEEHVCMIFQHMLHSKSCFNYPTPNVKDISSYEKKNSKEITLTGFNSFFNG
Experimental: (§1) The ELISA assay had the following protocols. Human GFRAL-His protein, cynomolgus monkey GFRAL-His protein, or mouse GFRAL-Fc protein were coated on 96-well plates, and after blocking the wells with PBS/1% BSA solution, the hybridoma supernatant or purified antibodies were added to the reaction wells. After incubation for 1 hour at room temperature, HRP-labeled anti-mouse IgG (Fab region) antibody was added to the reaction wells to incubate for an additional hour at room temperature. After the substrate and stop solution were added successively, the OD₄₅₀ values were read. The OD₄₅₀ values were used to verify and assess the binding ability of the antibodies to the GFRAL proteins.

[3] = target: Cynomolgus monkey GFRAL-His protein (cynomolgus monkey); assay: as above
Experimental: as §1

Human GFRAL-His protein = target: T4, Human GFRAL-His protein (human, UniProt Q6UXV0 19-351); assay: as above
T4 construct: also called human GFRAL-His fusion protein; not shown: His tag
T4 sequence (looked up): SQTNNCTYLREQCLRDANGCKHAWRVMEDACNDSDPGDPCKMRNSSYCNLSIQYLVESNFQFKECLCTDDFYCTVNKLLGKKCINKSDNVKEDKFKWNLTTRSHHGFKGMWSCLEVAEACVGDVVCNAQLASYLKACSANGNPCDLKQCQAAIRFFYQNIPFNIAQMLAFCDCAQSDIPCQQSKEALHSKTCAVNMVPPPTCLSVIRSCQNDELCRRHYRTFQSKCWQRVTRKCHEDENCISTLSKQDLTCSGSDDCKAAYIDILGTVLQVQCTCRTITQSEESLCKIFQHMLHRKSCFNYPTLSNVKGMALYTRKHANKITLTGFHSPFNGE
Experimental: as §1

[4] = target: T5, Mouse GFRAL protein (Biacore analyte) (mouse, UniProt Q6SJE0 20-349, limits assumed); assay: Biacore SPR, antibody captured via anti-human Fc on CM5, GFRAL injected, 25 C
T5 construct: also called mGFRAL
T5 sequence (looked up): T3 sequence (looked up)
Experimental: (§2) Binding affinity assays were performed for three antibody strains 168A7, 8E10 and 26D7 based on the Biacore affinity assay. The binding affinities of purified antibodies to human or mouse GFRAL were assessed by measuring the equilibrium dissociation constants (KD). The anti-human Fc antibody was immobilized in the flow cell of the CM5 chip according to the instructions of the amino-coupled kit (catalogue number: BR100050, Cytiva). Purified antibodies (˜300 RU) were captured on flow cells 2, 3 and 4 using flow cell 1 as a reference. Human or mouse GFRAL protein (in an HBS-EP buffer) was then injected at a flow rate of 30 μL/min and the binding kinetics were evaluated at 25° C. The results were as follows (FIGS. 1A-1C, Table 4)

[5] = target: T6, Human GFRAL protein (Biacore analyte) (human, UniProt Q6UXV0 19-351, limits assumed); assay: as above
T6 construct: also called hGFRAL
T6 sequence (looked up): T4 sequence (looked up)
Experimental: as §2

[6] = target: Cynomolgus monkey GFRAL protein (Biacore analyte) (cynomolgus monkey); assay: Biacore SPR, humanized antibody captured via murine anti-human Fc on CM5, GFRAL injected in 2-fold dilutions, 25 C
Experimental: (§3) Specific protocols are as follows.
(§4) The surface of the CM5 chip was activated using 400 mM EDC and 100 mM NHS at a flow rate of 10 μl/min according to the instructions for the amino-coupled kit (Cat. No. BR100050, Cytiva). Then, the murine anti-human Fc antibody was immobilized in the test channel (Fc2) and the reference channel (Fc1) of the CM5 chip. Finally, the chip was blocked with 1 M ethanolamine at a flow rate of 10 μl/min; The humanized antibody (˜300 RU) diluted to 5 μg/ml was then captured on the assay channel (Fc2), and ligand capture were not carried out on the reference channel. Human, mouse or cynomolgus monkey GFRAL proteins (in a HBS-EP buffer) with 2-fold doubling dilutions was subsequently injected at a flow rate of 30 μL/min and the binding kinetics were evaluated at 25° C. The results are as follows (see Table 12)

[7] = target: T5, Mouse GFRAL protein (Biacore analyte); assay: as above
Experimental: as §3, §4

[8] = target: T6, Human GFRAL protein (Biacore analyte); assay: as above
Experimental: as §3, §4

[9] = target: T1, Mouse GFRAL (mGFRAL) on HEK293 reporter …; assay: cell-based or functional assay; remark: listed apart in the source
[10] = target: T2, Human GFRAL (hGFRAL) on HEK293 reporter …; assay: cell-based or functional assay; remark: listed apart in the source

IC50 (nM), luciferase reporter gene assay, Mouse GFRAL/mouse RET [1]: 0.76 nM | IC50 (nM), luciferase reporter gene assay, Human GFRAL/human RET [2]: 6.35 nM | EC50 (Mouse GFRAL-Fc protein): 0.15 nM | EC50 [3]: 0.06 nM | EC50 (Human GFRAL-His protein): 0.07 nM | koff [4]: 0.000293 s⁻¹ | Kd [5]: 0.0153 nM | koff [5]: 9.37e-05 s⁻¹
B1: 26D7 (antibody, V domains shown)
VH: QIQLVQSGPELKKPGETVKISCKVSGYTFTDYGMNWVKQTPGKDLKWVGWINTYTGEPTYADDFKDRFAFSLEASASTAYLQINNLKNEDTATYFCARRYGYDAGIDCWGQGTTLTVSS
VL: NIVLTQSPPSLAVSLGQRATISCRASESVDSYGNNLMHWYQQKPGQPPKLLIYLASYLESGVPARFSGSGSRTDFTLTIDPVEADDAATYYCQQNNEDPWTFGGGTKLEIK
notes: Murine hybridoma antibody, purified; also called m26D7; M26D7

Kd [6]: 0.131 nM | koff [6]: 0.000193 s⁻¹ | koff [7]: 0.000215 s⁻¹ | Kd [8]: 0.0465 nM | koff [8]: 0.000125 s⁻¹ | IC50 (nM), luciferase reporter gene assay, Mouse GFRAL/mouse RET [9]: 1.9 nM | IC50 (nM), luciferase reporter gene assay, Human GFRAL/human RET [10]: 8.3 nM
B2: 26D7H3aL2c (antibody, V domains shown)
VH: QVQLVQSGAEVKKPGASVKISCKVSGYTFTDYGMNWVRQTPGQGLKWVGWINTYTGEPTYADDFKDRFTFTLDASTSTAYMELRSLRSDDTAVYFCARRYGYDAGIDAWGQGTLVTVSS
VL: EIVLTQSPGTLSLSPGERATLSCRASESVESYGNNLMHWYQQKPGQAPRLLIYLASYLESGVPDRFSGSGSGTDFTLTISRLEPEDFATYYCQQNNESPWTFGQGTKVEIK
notes: Humanized; also called humanized anti-GFRAL antibody 26D7H3aL2c

Kd [6]: 0.246 nM | koff [6]: 0.000231 s⁻¹ | koff [7]: 0.000314 s⁻¹ | Kd [8]: 0.119 nM | koff [8]: 0.000268 s⁻¹ | IC50 (nM), luciferase reporter gene assay, Mouse GFRAL/mouse RET [9]: 0.9 nM | IC50 (nM), luciferase reporter gene assay, Human GFRAL/human RET [10]: 11.8 nM
B3: 26D7H5bL5a (antibody, V domains shown)
VH: QVQLVQSGAEVKKPGASVKVSCKVSGYTFTDYGMNWVRQAPGQGLEWMGWINTYTGEPTYAQKLQGRVTFTTDTSTSTAYMELRSLRSDDTAVYYCARRYGYDAGIDAWGQGTTVTVSS
VL: DIQMTQSPSSLSASVGDRVTITCRASESVESYGNNLMHWYQQKPGKAPKLLIYLASYLESGVPSRFSGSGSGTDFTLTISSLQPEDFATYYCQQNNESPWTFGGGTKLEIK
notes: Humanized; also called humanized anti-GFRAL antibody 26D7H5bL5a
